Assay results: the DeepSol protein solubility set

Test: soluble on expression in E. coli; label from the status in PepcDB or PDB records
In the case of “SDSFWEPGNYKRTTKRIEDGYKLCNDLQQLIQERADIEKGYAKSLRTWSKKWGELIEKGPEYGTTEAAWKGVLTESERISDVHMKIKDNLCNDVNSQIKTWQKENYHHTLMQIKERKDLEDLFKKAQKPWAKLLAKVEKAKADYHSACKTERSATNQERNANADSSLSPDQVKKMHDRVQKTKDQVQKCREKYEQAIAEITKYNSVYIEDMTSVFEKCQTFEKTRLQFFKEILFNVHSCLDLTKVQSLPQIYEEFSHTINNADQQKDLKWWSNNHGINMAMNWPSFVEYT”, the “soluble on expression in E. coli” value is reported as “soluble”.
For “SDTMKVETIGKEIIKPSATTPTDLSTLQLSIMDILMPPVYAVAFLFYTKDDLISQEQTSHTLKTSLSEILTKFHPLAGRVNGVTIKSTDEGAVFVEARVDNCDLSGFLRSPDTESLKQLLPVDDEPAPTWPLLLVKATYFRCGGMAIGLCISHRLADAASLSIFLQAWAATARGESDLVASPDFCSTKLYPAANEAIKIPGEVVNRTSVTKRFVFVASKIEELRNKVASDVVPRPTRVQSVTSLIWKCVVTASTDTIREKALFQPANLRTKIPSLLSENQIGNLLFNSLILDGKAGMDIVETVKELQKRAEDLSGLVQDEEGSSMTIGWRLFGEIINSKFNREDHDMHSVTSWCKIPLYDACFGWGSPVWVAGSVSPNLDYVTVLIDSKDGQGIEAWVTLPQENMLLLEQSTELLAFASPNPSVLI”, the “soluble on expression in E. coli” value was “soluble”.
With “SDYDADELAEALQPVIVNTPHLKKPIGLIGAKGEFHPVLLAETSFPVQKKLTLKQAKGDFLIGVYEGDHHIEEKTLEPIPKEENAEEDDESEWSDDEPEVVREKLYTLGTKLMELGIKNANGVEIIFNINKDGALRVTARDLKTGNAVKGEL” the “soluble on expression in E. coli” value was “not soluble”.
With “SEERLNYIVFNQNISNMANKEVRQALSYALNRNEMIESAYGKEGSVPAKSILVPEADFYTEEGVEGYDQDTNKAKDLLDKSGVKIDKLKIGYNTGRFGHKNYALVAQQELKKIGIEAEIVPYESKAFFNILFSNSTECDMYVNGYAWGLEPNPYRGMFETGQYCNQTKYSNAEIDALWEKGFTELNKEKREEIYKQIQQDISKDAPIYTIDYEQNLMAAQKNL” the “soluble on expression in E. coli” value was “not soluble”.
With “SEESVKPVPKHANHRRSSVRSSLYGDVRDLWSTATMSTANVSVSDVCEDFDEEGKSVRNRIRKYSQTISIRDSLNLEPEEIQQQARRELELCHGRSLEHGEDHEESETSLASSTSESLIFSLWKPHRTYWTEQQNRLPLPLMELMETEVLDILKKALITYRSTIGRNHFMTKELQGYIEGIRKRRNKRLYFLDQ” the “soluble on expression in E. coli” value was “soluble”.
With “SEFKVTVCFGRTRVDVPCGDGRMKVFSLIQQAVTRYRKAVAKDPNYWIQVHRLEHGDGGILDLDDILCDVADDKDRLVAVFDEQD” the “soluble on expression in E. coli” value was “soluble”.
With “SEKNPPDDTGPVHVPLGHIVANEKWRGSQLAQEMQGKIKLIFEDGLTPDFYLSNRCCILYVTEADLVAGNGYRKRLVRVRNSNNLKGIVVVEKTRMSEQYFPALQKFTVLDLGMVLLPVASQMEASCLVIQLVQEQTKEPSKNPLLGKKRALLLSEPSLLRTVQQIPGVGKVKAPLLLQKFPSIQQLSNASIGELEQVVGQAVAQQIHAFFTQPR” the “soluble on expression in E. coli” value was “soluble”.
For “SEPIAAAPQIPVSEWDNPGIKLQVAPIPRICGMPEVQDMKLITPVRRSARIERTVARYPEMLQEHDVVVASLNELLEVDKTECFIFRENEALPVTLGFEVLES”, the “soluble on expression in E. coli” value was “not soluble”.
For “SEWNLRRMESELRQINPDLLQPSKSFKKPSSGTITINVGGYLYAAQRHTLAKHPGSLLEEMVTGKKPVLHVDSMGNTFIDRDGPIFRHILNFLRLGELVLPEDFKETELLRREANFYRLSELAQALQDWEQQQATQREPAFLEVTDSHERSQGLRVYCSDNTFIEKVKNRLVQISKSRLDGFPEEFEVSSNIIQFRHFIKSEQGSRLVLKQDSTFLCTLECLKLETVMLALKGGFRLITSLDSSRGSVVQCEALHFVK”, the “soluble on expression in E. coli” value was “soluble”.
With “SFSWLLRLCQKENGDEGDTRPTKKEEGILSHEKGRRKSFWRRHRSARNTSTQNSNITNQISNINKVRELKLDMRKISNDMEEMCGILNLYMYEDLNYRMNTEFNIIKSQHEKTMLDMDKMTQSIIASMKFSEELLKDNYSYSIKQKRGSVRRPARTCVSQVPRSSRCDHEIPQISDPDGSLHSSWDLGSIVSSEPD” the “soluble on expression in E. coli” value was “soluble”.
With “SGKLHSKPAAVCKRRESPEGDSFAVSAAWARKGIEEWIGRQRCPGGVSGPRQLRLAGTIGRSTRELVGDVLRDTLSEEEEDDFRLEVALPPEKTDGLGSGDEKKMERVSEPCPGSKKQLKFEELQCDVSMEEDSRQEWTFTLYDFDNNGKVTREDITSLLHTIYEVVDSSVNHSPTSSKMLRVKLTVAPDGSQSKRSVLVNQADLQSARPRAETKPTEDLRSWEKKQRAPLRFQGDSRLEQSGCYHHCVDENIERRNHYLDLAGIENYTSQFGPGSPSVAQKSELPPRTSNPTRSRSHEPEAIHIPHRKPQGVDPASFHFLDTPIAKVSELQQRLRGTQDGSKHFVRSPKAQGKSVGVGHVARGARNKPPLGPAIPAVSPSAHLAASPALLPSLAPLGHKKHKHRAKESQQGCRGLQAPLASGGPVLGREHLRELPALVVYESQAGQPVQRHEHHHHHEHHHHYHHFYQT” the “soluble on expression in E. coli” value was “not soluble”.
In the case of “SGKVILITGASRGIGLQLVKTVIEEDDECIVYGVARTEAGLQSLQREYGADKFVYRVLDITDRSRMEALVEEIRQKHGKLDGIVANAGMLEPVKSISQSNSEHDIKQWERLFDVNFFSIVSLVALCLPLLKSSPFVGNIVFVSSGASVKPYNGWSAYGCSKAALNHFAMDIASEEPSDKVRAVCIAPGVVDTQMQKDIRETLGPQGMTPKALERFTQLYKTSSLLDPKVPAAVLAQLVLKGIPDSLNGQYLRYNDERLGPVQG”, the “soluble on expression in E. coli” value is reported as “soluble”.
In the case of “SGLRKMAQPSGLVEPCIVRVSYGNNVLNGLWLGDEVICPRHVIASDTTRVINYENEMSSVRLHNFSVSKNNVFLGVVSARYKGVNLVLKVNQVNPNTPEHKFKSIKAGESFNILACYEGCPGSVYGVNMRSQGTIKGSFIAGTCGSVGYVLENGILYFVYMHHLELGNGSHVGSNFEGEMYGGYEDQPSMQLEGTNVMSSDNVVAFLYAALINGERWFVTNTSMSLESYNTWAKTNSFTELSSTDAFSMLAAKTGQSVEKLLDSIVRLNKGFGGRTILSYGSLCDEFTPTEVIRQMYGVNLQ”, the “soluble on expression in E. coli” value is reported as “soluble”.
In the case of “SGSCCSCPDKDTVPDNHRNKFKVINVDDDGNELGSGIMELTDTELILYTRKRDSVKWHYLCLRRYGYDSNLFSFESGRRCQTGQGIFAFKCARAEELFNMLQEIMQNNSINVVEEPVVERNNHQTELEVPRTPRTPTTPGFAAQNLPNGYPRYPSFGDASSHPSSRHPSVGSARLPSVGEESTHPLLVAEEQVHTYVNTTGVQEERKNRTSVHVPLEARVSNAESSTPKEEPSSIEDRDPQILLEPEGVKFVLGPTPVQKQLMEKEKLEQLGRDQVSGSGANNTEWDTGYDSDERRDAPSVNKLVYENINGLSIPSASGVRRGRLTSTSTSDTQNINNSAQRRTALLNYENLPSLPPVWEARKLSRDEDDNLGPKTPSLNGYHNNLDPMHNYVNTENVTVPASAHKIEYSRRRDCTPTVFNFDIRRPSLEHRQLNYIQVDLEGGSDSDNPQTPKTPTTPLPQTPTRRTELYAVIDIERTAAMSNLQKALPRDDGTSRKTRHNSTDLPMLAWK”, the “soluble on expression in E. coli” value is reported as “soluble”.
In the case of “SGTVHARSLEPLPSSGPDFGGLGEEAEFVEVEPEAKQEILENKDVVVQHVHFDGLGRTKDDIIICEIGDVFKAKNLIEVMRKSHEAREKLLRLGIFRQVDVLIDTCQGDDALPNGLDVTFEVTELRRLTGSYNTMVGNNEGSMVLGLKLPNLLGRAEKVTFQFSYGTKETSYGLSFFKPRPGNFERNFSVNLYKVTGQFPWSSLRETDRGMSAEYSFPIWKTSHTVKWEGVWRELGCLSRTASFAVRKESGHSLKSSLSHAMVIDSRNSSILPRRGALLKVNQELAGYTGGDVSFIKEDFELQLNKQLIFDSVFSASFWGGMLVPIGDKPSSIADRFYLGGPTSVRGFSMHSIGPQSEGDYLGGEAYWAGGLHLYTPLPFRPGQGGFGELFRTHFFLNAGNLCNLNYGEGPKAHIRKLAECIRWSYGAGIVLRLGNIARLELNYCVPMGVQTGDRICDGVQFGAGIRFL”, the “soluble on expression in E. coli” value is reported as “soluble”.
With “SHLHPLHKNTTGYDLRHLFIGSEGTLGIITAATLKLFANPLDKATAWVGIPDIESAVRLLTETQAHFAERLCSFELIGRFAAELSSEFSKLPLPTHSEWHILLELTDSLPDSNLDDRLVEFLYKKGFTDSVLAQSEQERIHMWALRENISASQRKLGTSIKHDIAVPIGRVADFVRRCAKDLEQNFKGIQIVCFGHLGDGSLHYNTFLPEILSNEVYRYENDINSTVYRNVLACNGTIAAEHGIGIIKKQWLDKVRTPAEIALMKSIKQHLDPYNIMNPGKLLP” the “soluble on expression in E. coli” value was “not soluble”.
With “SIETTKGGSGSYPIKTIVVLVQENRSFDHTLGWFKELNREIDGVTKSDPKSNTVSSSDTNSLRVVFGDQSQYVNPDPGHSIQDIYEQVFGKPWDSGKPDPNPGHPNMSGFAQNAERNKKGMSSAVMNGFKPNALPVYKELVQNFAICDRWFASVPASTQPNRLYVHSATSHGATSNDKKLLLEGFPQKTIFESLDEAGFSFGIYYQFPPSTLFYRNLRKLKYLTHFHQYGIQFKKDCKEGKLPNYVVVEQRWFDLLSTPANDDHPSHDVSEGQKLVKEVYEALRSSPQWNEILFIITYDEHGGFYDHVPTPVDGVPNPDGILGPPPYNFEFNRLGVRVPTFFISPWIEPGTVIHGPNGPYPRSQYEHSSIPATVKTIFKLKDFLSKRDSWAGTFESVITRDSPRQDCPETLSTPIKLRGTMAKENAQLSEFQEDLVIMAAGLKGDYKNEELIHKLCKETCVADASKYVTNAFEKFLEESRKARDRGCDENDIVYCVDDDDDHVVIPPQSHSEASNAAAQPKTQTSFFNKLFSCFIRHD” the “soluble on expression in E. coli” value was “soluble”.
With “SINVYLSLFSQGAESITTYTFNTHKAQHTFCKRCGVQSFYTPRSNPGGFGIAPHCLDEGTVRSVVTEEFNGSDWERAMKEHKTIKNMSKE” the “soluble on expression in E. coli” value was “soluble”.
For “SIVKMLLFQETARHSRAEGEPGASHSGSKQDKVPSSEEGTGCDASVCEAAAATHCEKDVTVSDTENVSSSKNILSHDPDVGTDTMEKEEKTHHACQEMELKVDQSSESTNPTEAELSSETRQGLQLTSGDVGIDQFLRQGDEPKSVNSDASDPGSVRLEPLTPSEVLEYEATEILHDGDDPSANTSDTVSDQTGGSPGGSNPCRAETAVDLADGEERS”, the “soluble on expression in E. coli” value was “soluble”.
With “SKAVIVIPARYGSSRLPGKPLLDIVGKPMIQHVYERALQVAGVAEVWVATDDPRVEQAVQAFGGKAIMTRNDHESGTDRLVEVMHKVEADIYINLQGDEPMIRPRDVETLLQGMRDDPALPVATLCHAISAAEAAEPSTVKVVVNTRQDALYFSRSPIPYPRNAEKARYLKHVGIYAYRRDVLQNYSQLPESMPEQAESLEQLRLMNAGINIRTFEVAATGPGVDTPACLEKVRALMAQELAENA” the “soluble on expression in E. coli” value was “soluble”.
In the case of “SKKTVEFVDYVNPLMGTESTFAFSHGNTYPAVAVPWGMNFWSPQTGENGSGWMYTYTDSLMRGFRQTHQPSPWINDYGTFSIMPLAGELKMSHKERLVPFSHQQEKATPYNYSVTFNNGLQTSLSATSRGAVFEVSFPEKEDQYVVVDAYNGGSSITIEPEKRLVKGATRYNNGGVPDNFANYFMMEFSHPVIEYGTYNGDTLLHHQTDVAADYTCAYLKFDVPAGEKLTIRTASSFISPEQAAINFNREVADADVQLISGKAREQWNNYLGRVEAEGGTDEQLRTFYSCLYRTLLFPREFYEFDSQGNPVYYSPYDGNVHDGYMYTDNGFWDTFRAVHPLFTLLYPEVSERVTQSIINAYNESGFMPEWASPGHRGCMIGNNSVSLLVDAWMKGIQTVDAEKALEAMIHQTQARHAEIASVGRDGFEYYDKLGYVPYPEVPEATAKTLEYAYADWCIARFAESLGKQDIADQYYQKAPNYRNLYYPEHGFMWTKDAKGNWRDRFDATEWGGPFTEGSSWHWTWSVFHDPEGLSELMGGHEPMIARLDSMFVAPNTYNYGTYGFVIHEIAEMVALNMGQYAHGNQPVQHAIYLYDYIGQPWKTQYHLRNVMDKLYNSGSKGYCGDEDNGQTSAWYVFSAMGFYPVCPGMPEYAIGSPLFKKVTLHLPEGKNFVVSAADNAADRPYIRKALLNGQEFTRNYLTHDELKQGGELNLSMDSVPNQQRGTQPADFPYSYSK”, the “soluble on expression in E. coli” value is reported as “soluble”.
